Test results: PMC5748972 (The Journal of Cell Biology, 2018)

Legend:
[1] = molecular target: intact integrin α4β1 on the surface of Jurkat cells (human (endogenous in Jurkat)) (UniProt P13612); experiment: flow cytometry on cells
[2] = molecular target: FITC-conjugated 4-((N′-2-methylphenyl)ureido)-phenylacetyl-L-leucyl-L-aspartyl-L-valyl-L-prolyl-L-al; experiment: fluorescence polarisation
[3] = molecular target: intact α4β1 on Jurkat cells (Homo sapiens, UniProt P05556+P13612); experiment: Fluorescent flow cytometry saturation binding of FITC-LDVP, Jurkat; settings: basal
[4] = molecular target: intact α4β1 on Thp1 cells (Homo sapiens, UniProt P05556+P13612); experiment: Fluorescent flow cytometry saturation binding of FITC-LDVP, Thp1; settings: basal
intact α4β1 on KA4 cells = intact α4β1 on KA4 cells (Homo sapiens, UniProt P05556+P13612); experiment: Fluorescent flow cytometry saturation binding of FITC-LDVP, KA4; settings: basal
integrin α4β1 = integrin α4β1 (Homo sapiens, UniProt P05556+P13612); experiment: Summary statements across α4β1 preparations and cell types; assay type: binding; settings: Jurkat, Thp1, KA4 cell surface
[5] = molecular target: intact integrin α4β1 on the surface of Jurkat cells (human (endogenous in Jurkat), UniProt P13612;P05556); experiment: flow cytometry on cells

human MAdCAM D1D2 (mucosal addressin cell adhesion molecule, domains 1 and 2) (domain or fragment)
Kd [1]: 13900 nM

integrin α4β1 headpiece with high-mannose N-glycans (from UniProt P05556 21-501) (complex)
Kd [2]: 5.2 nM

α4β1: integrin α4β1; intact receptor on the cell surface
P^EO [3]: 1.1 ± 0.2%
P^EO [4]: 0.4 ± 0.1%
P^EO (intact α4β1 on KA4 cells): 1.4 ± 0.3%
free energy of the BC state, range on three cell types (integrin α4β1): -3.2 to -2.5 kcal/mol

B1: alternatively spliced connecting segment III of human fibronectin (domain or fragment)
chain: DELPQLVTLPHPNLHGPEILDVPSTVQKTPFVTHPGYDTGNGIQLPGTSGQQPSVGQQMIFEEHGFRRTTPPTTATPIRHRPRPYPPNVGEEIQIGHIPREDVDYHLYPHG
Kd [5]: 1000 ± 190 nM
